Experimental data reported in the supplement of paper PMC7877785.
± gives the uncertainty stated by the source.

Experiment: self-splicing fitness, log relative to wild type (ln ratio); higher = more splicing; Tetrahymena group I intron in knt gene, E. coli kanamycin selection, DiMSum; sequences stand for … in CUCUCU…GGAGGGAAAAGUUAUCAGGCAUGCACCUGGUAGCUAGUCUUUAAACCAAUAGAUUGCAUCGGUUUAAAAGGCAAGACCGUCAAAUUGCGGGAAAGGGGUCAACAGCCGUUCAGUACCAAGUCUCAGGGGAAACUUUGAGAUGGCCUUGCAAAGGGUAUGGUAAUAAGCUGACGGACAUGGUCCUAACCACGCAGCCAAGUCCUAAGUCAACAGAUCUUCUGUUGAUAUGGAUGCAGUUCACAGACUAAAUGUCGGUCGGGGAAGAUGUAUUCUUCUCAUAAGAUAUAGUCGGACCUCUCCUUAAUGGGAGCUAGCGGAUGAAGUGAUGCAACACUGGAGCCGCUGGGAACUAAUUUGUAUGCGAAAGUAUAUUGAUUAGUUUUGGAGUACUCGUGGUCG
Method in brief: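 The eight P1ex-region nucleotides of an intron in the knt kanamycin-resistance gene on pET-22b(+) were all randomised and the library put into E. coli BL21(DE3). Six replicate transformations were grown overnight at 37°C or 30°C on LB agar with or without 25 μg/mL kanamycin, together with 100 μg/mL carbenicillin, 50 μM IPTG and 0.2% rhamnose. Colonies were pooled and amplicon-sequenced on an Illumina HiSeq 2500. Fitness from DiMSum is the error-weighted combination of wild-type-normalised replicate fold changes, kanamycin over none.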

Sequence | self-splicing fitness (ln) (30 °C) | self-splicing fitness (ln) (37 °C)
AUUAAGCAAUAUUACGGAAU | -1.3 ± 0.14 | -1.3 ± 0.18
AUUAAGCAAUAUUACGGACG | -1.18 ± 0.12 | -0.721 ± 0.14
AUUAAGCAAUAUUACGGAGG | -2.32 ± 0.16 | -1.42 ± 0.27
AUUAAGCAAUAUUACGGUCU | -0.183 ± 0.15 | 0.0171 ± 0.15
AUUAAGCAAUAUUACGUAAC | -2.12 ± 0.12 | -1.88 ± 0.14
AUUAAGCAAUAUUACGUACU | 0.0206 ± 0.094 | 0.125 ± 0.12
AUUAAGCAAUAUUACGUAGA | -2.39 ± 0.15 | -0.947 ± 0.15
AUUAAGCAAUAUUACGUUAC | -2.99 ± 0.26 | -1.16 ± 0.27
AUUAAGCAAUAUUACGUUUA | -1.61 ± 0.14 | -1.54 ± 0.15
AUUCAGCAAUAUUACGAAUC | -2.12 ± 0.2 | -0.519 ± 0.32
AUUCAGCAAUAUUACGAAUU | -3.71 ± 0.15 | -2.29 ± 0.16
AUUCAGCAAUAUUACGACCG | 0.174 ± 0.18 | -0.187 ± 0.27
AUUCAGCAAUAUUACGACUG | -1.47 ± 0.13 | -0.646 ± 0.15
AUUCAGCAAUAUUACGAUAG | -3.99 ± 0.42 | -2.57 ± 0.26
AUUCAGCAAUAUUACGAUAU | -0.41 ± 0.057 | 0.146 ± 0.079
AUUCAGCAAUAUUACGCAGA | -2.28 ± 0.21 | -0.845 ± 0.12
AUUCAGCAAUAUUACGCAUC | -2.75 ± 0.16 | -0.806 ± 0.16
AUUCAGCAAUAUUACGCCCU | 0.164 ± 0.13 | 0.287 ± 0.21
AUUCAGCAAUAUUACGCGCC | -1.17 ± 0.15 | 0.194 ± 0.21
AUUCAGCAAUAUUACGCGUU | -0.912 ± 0.07 | -0.348 ± 0.081
AUUCAGCAAUAUUACGGAGG | -2.29 ± 0.13 | -1.13 ± 0.13
AUUCAGCAAUAUUACGGCCA | -0.32 ± 0.21 | -0.225 ± 0.21
AUUCAGCAAUAUUACGGCGA | -0.392 ± 0.078 | -0.501 ± 0.084
AUUCAGCAAUAUUACGGCGU | 0.256 ± 0.057 | 0.488 ± 0.074
AUUCAGCAAUAUUACGGGCU | -2.2 ± 0.12 | -1.38 ± 0.12

Sequence | self-splicing fitness (ln) (30 °C) | self-splicing fitness (ln) (37 °C)
AUUCAGCAAUAUUACGGGUU | -2.8 ± 0.17 | -1.75 ± 0.16
AUUCAGCAAUAUUACGUACA | -0.718 ± 0.095 | 0.309 ± 0.11
AUUCAGCAAUAUUACGUCAG | -2.51 ± 0.15 | -1.67 ± 0.22
AUUCAGCAAUAUUACGUGAC | -3.05 ± 0.44 | -1.84 ± 0.35
AUUCAGCAAUAUUACGUGUC | -4.2 ± 0.22 | -2.02 ± 0.2
AUUCAGCAAUAUUACGUUCA | -1.07 ± 0.12 | -0.606 ± 0.13
AUUCAGCAAUAUUACGUUGA | -2.64 ± 0.1 | -1.34 ± 0.093
AUUCAGCAAUAUUACGUUGG | -2.45 ± 0.12 | -1.94 ± 0.13
AUUCAGCAAUAUUACGUUUG | -2.76 ± 0.094 | -1.54 ± 0.1
AUUGAGCAAUAUUACGAACG | -2.34 ± 0.18 | -0.91 ± 0.3
AUUGAGCAAUAUUACGAGAG |  | -2.66 ± 0.29
AUUGAGCAAUAUUACGAUCC | -1.32 ± 0.4 | 
AUUGAGCAAUAUUACGCAGG | -3.68 ± 0.29 | -2.72 ± 0.27
AUUGAGCAAUAUUACGCCUG | -2.27 ± 0.33 | 
AUUGAGCAAUAUUACGCGAG | -1.83 ± 0.13 | -0.958 ± 0.14
AUUGAGCAAUAUUACGCGGC | -3.26 ± 0.38 | 
AUUGAGCAAUAUUACGCUAU | -3.5 ± 0.44 | -2.12 ± 0.42
AUUGAGCAAUAUUACGCUUU | -2.92 ± 0.24 | -1.29 ± 0.26
AUUGAGCAAUAUUACGGACC | -3.26 ± 0.48 | 
AUUGAGCAAUAUUACGGUCU | -2.72 ± 0.15 | -2.56 ± 0.25
AUUGAGCAAUAUUACGGUUA | -3.06 ± 0.29 | -2.57 ± 0.22
AUUGAGCAAUAUUACGUACC |  | -1.17 ± 0.46
AUUGAGCAAUAUUACGUCUU | -1.39 ± 0.12 | -0.607 ± 0.14
AUUGAGCAAUAUUACGUGUG | -2.38 ± 0.11 | -2.41 ± 0.16
AUUGAGCAAUAUUACGUUUA | -2.83 ± 0.19 | -2.98 ± 0.27

Sequence | self-splicing fitness (ln) (30 °C) | self-splicing fitness (ln) (37 °C)
AUUUAGCAAUAUUACGAACC | -2.12 ± 0.19 | -0.169 ± 0.21
AUUUAGCAAUAUUACGACCA | -0.901 ± 0.19 | -0.373 ± 0.23
AUUUAGCAAUAUUACGAGGU | -3.21 ± 0.39 | -1.91 ± 0.42
AUUUAGCAAUAUUACGCACU | 0.177 ± 0.13 | 0.474 ± 0.16
AUUUAGCAAUAUUACGCAGC | -2.71 ± 0.35 | -1.68 ± 0.43
AUUUAGCAAUAUUACGCCAG | -2.27 ± 0.27 | 
AUUUAGCAAUAUUACGCGCU | -0.923 ± 0.18 | -0.889 ± 0.15
AUUUAGCAAUAUUACGGAUC | -2.84 ± 0.22 | -0.766 ± 0.19
AUUUAGCAAUAUUACGGAUU | -2.1 ± 0.21 | -0.519 ± 0.2
AUUUAGCAAUAUUACGGCCC | -1.06 ± 0.2 | -0.289 ± 0.3
AUUUAGCAAUAUUACGGCGG | -2.31 ± 0.17 | -0.525 ± 0.17
AUUUAGCAAUAUUACGGGUU |  | -0.906 ± 0.21
AUUUAGCAAUAUUACGGUCC | -2.72 ± 0.17 | -0.126 ± 0.15
AUUUAGCAAUAUUACGGUGG | -3.55 ± 0.31 | -3.1 ± 0.27
AUUUAGCAAUAUUACGGUUC |  | -3.23 ± 0.43
AUUUAGCAAUAUUACGUUAA | -2.52 ± 0.27 | -2.56 ± 0.34
AUUUAGCAAUAUUACGUUCA | -0.355 ± 0.17 | -0.395 ± 0.18
AUUUAGCAAUAUUACGUUCC | -1.54 ± 0.26 | -1.23 ± 0.49
CAAAAGCAAUAUUACGACCG | -0.0202 ± 0.1 | -0.497 ± 0.13
CAAAAGCAAUAUUACGAGAG | -2.79 ± 0.1 | -2.34 ± 0.11
CAAAAGCAAUAUUACGAUGG | -0.431 ± 0.062 | -0.139 ± 0.079
CAAAAGCAAUAUUACGAUGU | -2.32 ± 0.075 | -1.66 ± 0.11
CAAAAGCAAUAUUACGCUAU | -2.78 ± 0.16 | -2.09 ± 0.19
CAAAAGCAAUAUUACGCUUA | -3.17 ± 0.23 | -2.17 ± 0.15
CAAAAGCAAUAUUACGCUUG | -3.3 ± 0.15 | -2.35 ± 0.19

Sequence | self-splicing fitness (ln) (30 °C) | self-splicing fitness (ln) (37 °C)
CAAAAGCAAUAUUACGGACG | -0.163 ± 0.059 | 0.223 ± 0.079
CAAAAGCAAUAUUACGGAUG | -2.76 ± 0.11 | -1.4 ± 0.14
CAAAAGCAAUAUUACGGCGU | -1.23 ± 0.069 | -0.3 ± 0.086
CAAAAGCAAUAUUACGGUCA | -1.83 ± 0.13 | 0.0762 ± 0.1
CAAAAGCAAUAUUACGUAAC | -3.75 ± 0.18 | -2.62 ± 0.3
CAAAAGCAAUAUUACGUACA | -1.91 ± 0.1 | -1.54 ± 0.13
CAAAAGCAAUAUUACGUAGG | -0.97 ± 0.057 | 0.00194 ± 0.083
CAAAAGCAAUAUUACGUCAG | -0.464 ± 0.062 | -0.392 ± 0.075
CAACAGCAAUAUUACGAAGU |  | -1.78 ± 0.16
CAACAGCAAUAUUACGACCG | 0.0339 ± 0.079 | -0.239 ± 0.081
CAACAGCAAUAUUACGACGA | -0.955 ± 0.075 | 0.0703 ± 0.084
CAACAGCAAUAUUACGAGUC | -3.58 ± 0.2 | -2.58 ± 0.26
CAACAGCAAUAUUACGAUCG | -0.183 ± 0.052 | 0.463 ± 0.069
CAACAGCAAUAUUACGAUUC | -0.966 ± 0.087 | -0.733 ± 0.11
CAACAGCAAUAUUACGCAGG | -2.19 ± 0.11 | -0.807 ± 0.085
CAACAGCAAUAUUACGCCCU | -1.96 ± 0.086 | -1.24 ± 0.1
CAACAGCAAUAUUACGCCGG | -0.647 ± 0.062 | 0.147 ± 0.087
CAACAGCAAUAUUACGCCUC | -3.85 ± 0.29 | -1.81 ± 0.18
CAACAGCAAUAUUACGCGUU | -3.77 ± 0.14 | -1.62 ± 0.08
CAACAGCAAUAUUACGCUGG | -3.71 ± 0.18 | -2.01 ± 0.16
CAACAGCAAUAUUACGCUUG | -2.71 ± 0.12 | -1.82 ± 0.14
CAACAGCAAUAUUACGGAAA | -3.2 ± 0.17 | -2.27 ± 0.18
CAACAGCAAUAUUACGGACA | -1.81 ± 0.1 | -0.798 ± 0.097
